Data as given in US20220356246A1 (published 2022).
Changes are numbered by the printed parent chain.

B1: anti-ROR1 antibody clone G6 (antibody, V domains shown)
VH: EVQLVESGGGVVQPGGSLRLSCAASGFTFDDYAMHWVRQAPGKGLEWVSLISGDGGSTYYADSVKGRFTISRDNAKNSLYLQMNSLRAEDTAVYYCARDNWNDVYYYYGMDVWGQGTTVTVSS
VL: DIQLTQSPSSLSASIGDTVTISCQASRDISDYLNWYQHKPGKAPKLLIYDASNLATGVPSRFSGSGSGTDFTLTIKSLQPEDVATYFCQQDDLLPLTFGGGTKVDIK
B2: anti-ROR1 antibody clone G3 (antibody, V domains shown)
VH: QVQLQQWGAGLLKPSETLSLTCAVYGGSFSGYYWSWIRQPPGKGLEWIGEINHSGSTSYNPSLKSRVTISVDTSKNQFSLKLSSVTAADTAVYYCARGHSSGWYRRYFDLWGRGTLVTVSS
VL: EIVLTQSPATLSLSPGERATLSCRASQSVSSYLAWYQQKPGQAPRLLIYDASNRATGIPAKFSGSGSGTDFTLTISSLEPEDFAVYYCQQRSNWPPTFGGGTKVEIK
B3: anti-ROR1 antibody clone C3 (antibody, V domains shown)
VH: QVQLQESGPGLVKPSETLSLTCTVSGGSISSYYWSWIRQLPGKGLEWIGYMHYSGSTSYNPSLKGRLTISVDTSTNQFSLKLGSVTAADTAVYYCARYYYHDSSGYYSYFDYWGQGTLVTVSS
VL: B2 VL with A9G, P40A, T56S, K61R

The binders below were run against Human ROR1-ECD (human, UniProt Q01973 30-406) (assay: BLI (Fortebio)).
Sequence of Human ROR1-ECD (Q01973 30-406): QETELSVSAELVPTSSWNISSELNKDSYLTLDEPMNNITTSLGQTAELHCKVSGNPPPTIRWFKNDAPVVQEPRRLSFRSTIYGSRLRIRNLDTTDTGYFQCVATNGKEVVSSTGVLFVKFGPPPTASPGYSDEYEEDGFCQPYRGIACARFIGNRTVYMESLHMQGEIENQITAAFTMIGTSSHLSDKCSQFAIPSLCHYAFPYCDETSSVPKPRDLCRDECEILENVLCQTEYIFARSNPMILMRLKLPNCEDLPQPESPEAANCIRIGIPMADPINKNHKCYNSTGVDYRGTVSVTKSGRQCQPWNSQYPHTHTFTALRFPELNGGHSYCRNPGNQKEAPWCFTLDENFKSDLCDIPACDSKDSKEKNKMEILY

Kd | Binder
43.7 nM | B1
4.48 nM | B2
3.25 nM | B3
